US20220041665A1, “POLYNUCLEOTIDE AND USES THEREOF” (Helsingin yliopisto, priority 2019, published 2022)

Tests used:
Assay type in all cases: cell-based, human
[1] = system: endogenous target proteins tagged with miniIAA7-mEGFP; test: FACS of mean GFP intensity in cells with endogenously miniIAA7-mEGFP-tagged targets and auxin perceptive proteins
Protocol: (§1) For FACS analysis, cells were seeded at 1:5 (for A431) or 1:3 (for A549) into 6-well plate in medium without selection on day 0. On day 1, medium was changed to 2 ml fresh medium without (for 0 h and 1 h IAA samples) or with (for 16 h IAA samples) 0.5 mM IAA. On day 2, the 1 h samples were supplemented with 0.5 ml medium containing 2.5 mM IAA (final 0.5 mM) and incubated for 1 h at 37° C. After treatment, cells were detached with 0.5 ml trypsin at 37° C. for 5-8 min (A549) or 8-12 min (A431), put on ice, and transferred to 1.5 ml Eppendorf tubes containing 0.5 ml serum-free CO2 independent medium (Gibco). The cell suspensions were centrifuged at 4° C., resuspended in 0.3 ml ice-cold serum-free FluoroBrite DMEM (Gibco) and stored on ice prior to FACS analysis. FACS analysis was performed on a BD Influx cell sorter (BD Biosciences-US) with 100 μm nozzle at 4-8° C. using BD FACS Sortware. Cells were gated with SSC, FSC and trigger pulse width for singlets and 100 000 cells were analyzed for each sample. GFP was excited with 488 nm laser and detected with 530/40 detector; mCherry was excited with 561 nm lasers and detected with 615/20 detector. Data was analyzed with BD FACS Sortware. Background subtracted mean fluorescence intensity was used for analysis.
Dynein heavy chain (DHC1) and epidermal growth factor receptor (EGFR) were chosen as the first targets. DHC1 is an essential protein that could not be rapidly depleted by using the OsTIR1-miniAID system in a previous study (Natsume et al., 2016, Cell Rep. 15, 210-218). EGFR is a transmembrane receptor with a canonical function in EGF uptake that can be acutely assessed after protein depletion. Endogenous target loci were tagged homozygously in human cells with miniIAA7-mEGFP through Cas9-mediated homology-directed repair (FIG. 3A). DHC1 was tagged homozygously but it was only possible to tag EGFR heterozygously in A431 cells, likely due to its high copy numbers in this cell type (data not shown). […]
Then the overall performance of the AtAFB2-miniIAA7 system in depleting different endogenous proteins was evaluated. […]

[2] = system: A549 cells with tagged EGFR; test: EGF uptake in A549 cells with tagged EGFR; conditions: EGFR-OsTIR1 cells
Protocol: A549 cells were seeded at 0.4×10^5 cells per 4-well for 3 days. Medium was changed to fresh medium with or without 0.5 mM IAA for 1 h. Cells were washed twice with ice-cold serum free medium with 1% BSA and 0.2 ml of 2 μg/ml Alexa Fluor™ 647 EGF complex (ThermoFisher, E35351) in serum free medium with 1% BSA was added. Cells were further incubated at 37° C. for 20 min before harvesting with trypsin. Samples were kept on ice before FACS analysis. Alexa Fluor™ 647 was excited with 640 nm laser and detected with 720/40 detector, analysing 20 000 cells per sample. Negative control samples were cells incubated in medium without EGF complex. Background subtracted mean fluorescence intensity was used for analysis.

seipin-mEGFP = test: FACS screen of auxin perceptive proteins and degrons (mean GFP intensity) in A431 cell pools
Protocol: To search for an improved AID system to solve the issue, a pipeline was first established in human A431 cells to screen AID components (FIG. 2A). Various auxin perceptive proteins and degrons were selected for screening. Several TIR1 and AFB2 proteins from different plant species were tested, as well as degrons derived from AtIAA17 (SEQ ID NO: 3), these including amino acid (aa.) 65-132 (miniAID), aa. 62-109, aa. 71-114. All these degrons were included in the screen. […] These high affinity fragments were tested, assuming higher affinity might translate into more efficient inducible degradation. Degrons with KR dipeptide deletions were tested to see if they would have an effect on enhancing IAA binding affinity, IAA-inducible depletion or as part of a nuclear localization signal. PB1 domain of the AUX/IAA proteins has not been implicated in auxin-inducible degradation, so several other degrons with PB1 domain sequences homologous to miniAID were also tested.
A431 cell pools were generated to stably express different combinations of auxin perceptive protein and degron-fused seipin. Cells were cotransfected with a mixture of three vectors composed of pSH-EFIRES-P expressing an auxin perceptive protein, pSH-EFIRES-B expressing a degron-fused seipin, and pCas9-sgAAVS1 at ratio 3:3:4. Transfected cells were passaged 4-6 h after transfection at 1:5 into 6-well plates. On the next day, cells were selected with 1 μg/ml puromycin (Sigma, P8833) for 2 days, and with 5 μg/ml blasticidin (Gibco, A1113904) for 2 days, then with both antibiotics for at least 6 days before using for FACS analysis.
as §1

B1: OsTIR1: TIR1 derived from Oryza sativa, auxin perceptive protein (protein)
chain: MTYFPEEVVEHIFSFLPAQRDRNTVSLVCKVWYEIERLSRRGVFVGNCYAVRAGRVAARFPNVRALTVKGKPHFADFNLVPPDWGGYAGPWIEAAARGCHGLEELRMKRMVVSDESLELLARSFPRFRALVLISCEGFSTDGLAAVASHCKLLRELDLQENEVEDRGPRWLSCFPDSCTSLVSLNFACIKGEVNAGSLERLVSRSPNLRSLRLNRSVSVDTLAKILLRTPNLEDLGTGNLTDDFQTESYFKLTSALEKCKMLRSLSGFWDASPVCLSFIYPLCAQLTGLNLSYAPTLDASDLTKMISRCVKLQRLWVLDCISDKGLQVVASSCKDLQELRVFPSDFYVAGYSAVTEEGLVAVSLGCPKLNSLLYFCHQMTNAALVTVAKNCPNFTRFRLCILEPGKPDVVTSQPLDEGFGAIVRECKGLQRLSISGLLTDKVFMYIGKYAKQLEMLSIAFAGDSDKGMMHVMNGCKNLRKLEIRDSPFGDAALLGNFARYETMRSLWMSSCNVTLKGCQVLASKMPMLNVEVINERDGSNEMEENHGDLPKVEKLYVYRTTAGARDDAPNFVKIL
- basal depletion at 0 h IAA ([1]; EGFR-OsTIR1 cells (A549), 0 h IAA): severe basal depletion
- IAA-independent reduction of EGF uptake [2]: severe IAA-independent reduction

B2: AtAFB2: Arabidopsis thaliana AFB2, auxin perceptive F-box protein (SEQ ID NO: 96) (protein, listed as Arabidopsis thaliana)
chain: MNYFPDEVIEHVFDFVTSHKDRNAISLVCKSWYKIERYSRQKVFIGNCYAINPERLLRRFPCLKSLTLKGKPHFADFNLVPHEWGGFVLPWIEALARSRVGLEELRLKRMVVTDESLELLSRSFVNFKSLVLVSCEGFTTDGLASIAANCRHLRDLDLQENEIDDHRGQWLSCFPDTCTTLVTLNFACLEGETNLVALERLVARSPNLKSLKLNRAVPLDALARLMACAPQIVDLGVGSYENDPDSESYLKLMAVIKKCTSLRSLSGFLEAAPHCLSAFHPICHNLTSLNLSYAAEIHGSHLIKLIQHCKKLQRLWILDSIGDKGLEVVASTCKELQELRVFPSDLLGGGNTAVTEEGLVAISAGCPKLHSILYFCQQMTNAALVTVAKNCPNFIRFRLCILEPNKPDHVTSQPLDEGFGAIVKACKSLRRLSLSGLLTDQVFLYIGMYANQLEMLSIAFAGDTDKGMLYVLNGCKKMKKLEIRDSPFGDTALLADVSKYETMRSLWMSSCEVTLSGCKRLAEKAPWLNVEIINENDNNRMEENGHEGRQKVDKLYLYRTVVGTRMDAPPFVWIL
- target protein level before IAA addition, compared to OsTIR1 (seipin-mEGFP; miniAID as degron, 0 h IAA): over 5 fold
- basal depletion (seipin-mEGFP; miniAID as degron, 0 h IAA, compared to OsTIR1): minimal basal depletion
- auxin-inducible depletion at 1 h IAA (seipin-mEGFP; miniAID as degron, 1 h IAA (0.5 mM)): inefficient
- auxin-inducible depletion at 16 h IAA, compared to OsTIR1 (seipin-mEGFP; miniAID as degron, 16 h IAA (0.5 mM)): similar
- auxin-inducible depletion at 1 h IAA and at longer times ([1]; DHC1 (A431) and EGFR (A549) tagged with miniIAA7-mEGFP): efficient auxin-inducible depletion
- basal degradation at 0 h IAA ([1]; DHC1 (A431) and EGFR (A549) tagged with miniIAA7-mEGFP, 0 h IAA): minimal basal degradation

B3: miniIAA7: degron composed of AtIAA7 (SEQ ID NO: 1) amino acids 37-104 (protein, listed as Arabidopsis thaliana)
chain: GFSETVDLMLNLQSNKEGSVDLKNVSAVPKEKTTLKDPSKPPAKAQVVGWPPVRNYRKNMMTQQKTSS
- reduction of GFP at 1 h IAA (seipin-mEGFP; AtAFB2 expressing cells, 1 h IAA): best reduction of GFP
- efficiency of protein reduction compared to miniAID (seipin-mEGFP; in combination with AtAFB2, 1 h IAA): over 3 fold
